Assay results published in the supplement of paper PMC10724198.
± gives the standard deviation of the averaged measurements.

System: Saccharomyces cerevisiae
Assay: protein stability index of tFT-peptide fusion (C-terminal peptide) (PSI (0-1 scale)); higher = more stable (slower turnover)
Conditions: genetic background: wild type; temperature: 30 C
Description: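 Multiplexed protein stability (MPS) profiling in S. cerevisiae. Random 12-aa peptides (tFT-X12 library) are fused to the C-terminus of a sfGFP-mCherry tandem fluorescent timer, after mCherry and a GGGS linker. Cells are FACS-sorted into 8 mCherry/sfGFP bins and deep-sequenced. The protein stability index (PSI) is the read-weighted bin average, scaled from 0 (unstable) to 1 (stable). Only peptides with >10 reads are reported; cells were grown at 30 °C in SC-His with glucose.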
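Further: PSI is a weighted mean of sequencing reads over stability bins, variants kept only with over 10 reads, mCherry proximal and sfGFP distal, peptide attached via GGGS linker.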

LPRPPPPPPPSP
protein stability index: 0.827 ± 0.098

SPPILPRGLYSH
protein stability index: 0.637 ± 0.0097

GEVGTVEGGATG
protein stability index: 0.69596 ± 7e-05

VQWSRFRVGMAE
protein stability index: 0.848 ± 0.19

GGPRDNEGSWWV
protein stability index: 0.7122 ± 0.0029

RRWSPPGLGCIE
protein stability index: 0.735 ± 0.019

YVVCMNKSSFRG
protein stability index: 0.769 ± 0.042

PLGGPYNSHMFT
protein stability index: 0.956 ± 0.038

YTKIIPIFPEQL
protein stability index: 0.631 ± 0.03

RPASPASSPFFP
protein stability index: 0.70509 ± 0.00065

EEHWDCEYVAFH
protein stability index: 0.719 ± 0.015

HVHLHSTTAPPP
protein stability index: 0.695 ± 0.015

GKILSNNQIFKR
protein stability index: 0.702 ± 0.057

KKRKKKKIIQTK
protein stability index: 0.65 ± 0.11

RTKLFGIVGRQL
protein stability index: 0.659 ± 0.036

PPPRPPPPSCPP
protein stability index: 0.685 ± 0.092

LGVWVGGRGVRG
protein stability index: 0.747 ± 0.037

GGFNARVSPTRL
protein stability index: 0.709 ± 0.1

SFHCFFTTSWYS
protein stability index: 0.701 ± 0.11

GGLVGSSVWGWG
protein stability index: 0.703 ± 0.04

VASTSLPDIRGV
protein stability index: 0.631 ± 0.07

GKIKKTTDKILI
protein stability index: 0.639 ± 0.11

SRVGWSRLGPGL
protein stability index: 0.68 ± 0.022

ERYKHKKMKNNE
protein stability index: 0.699 ± 0.097

DLLPGAGRDSRL
protein stability index: 0.775 ± 0.21

SLPPPPLLPRPL
protein stability index: 0.686 ± 0.061

PRLVHGFPRFHP
protein stability index: 0.669 ± 0.033

STVSLASPARSP
protein stability index: 0.683 ± 0.048

RPLSSPPTRSRA
protein stability index: 0.751 ± 0.038

GGRGGEGLVREG
protein stability index: 0.667 ± 0.019

VLDPRGEFFSHP
protein stability index: 0.657 ± 0.044

PPPPPLPALPLL
protein stability index: 0.84 ± 0.081

HPPPPRLPPRPP
protein stability index: 0.63 ± 0.02

VCWLTCCGQLIA
protein stability index: 0.514 ± 0.0068

SLRFLFPSSRFF
protein stability index: 0.664 ± 0.015

CECVGGFGFLGS
protein stability index: 0.682 ± 0.031

PCFSCPPLFLRT
protein stability index: 0.631 ± 0.067

SPRGPLVICHHP
protein stability index: 0.745 ± 0.075

RYPSRGQFGPSP
protein stability index: 0.691 ± 0.019

PPPGPNPPSSPS
protein stability index: 0.758 ± 0.036

KNPSLSSPLPHP
protein stability index: 0.6908 ± 0.0041

VECGVAGSLDLA
protein stability index: 0.713 ± 0.014

NIKKKKKETKNN
protein stability index: 0.676 ± 0.024

RNSDPRLGGNTF
protein stability index: 0.687 ± 0.052

IYNDPYYLIKAR
protein stability index: 0.644 ± 0.018

GVSHKKGCPWLG
protein stability index: 0.641 ± 0.043

AFYVLPPSPLTR
protein stability index: 0.665 ± 0.013

PPLALLLSPVPP
protein stability index: 0.688 ± 0.046

PPHPPRCRRSPC
protein stability index: 0.718 ± 0.037

SPSPFRPAPSLH
protein stability index: 0.7048 ± 0.0061

FPVARGRHWLSR
protein stability index: 0.732 ± 0.12

LPPPRPLPRPCP
protein stability index: 0.748 ± 0.096

GARGGEGVSGGA
protein stability index: 0.701 ± 0.012

PSPPAPFPLVPT
protein stability index: 0.607 ± 0.032

FSFARFFSWSFS
protein stability index: 0.694 ± 0.13

GRTWCFVGARPS
protein stability index: 0.698 ± 0.17

PRALCPPPSPST
protein stability index: 0.697 ± 0.043

GHSLARHRHRGS
protein stability index: 0.701 ± 0.0095

PPASLRRPRSYL
protein stability index: 0.748 ± 0.025

PPSPLQGRICFV
protein stability index: 0.698 ± 0.032

PSKGKYKKMGPR
protein stability index: 0.661 ± 0.076

PPAGCSPSPRSP
protein stability index: 0.66 ± 0.056

PRSAAQSQMRRK
protein stability index: 0.711 ± 0.056

SHPHLSSPPSRP
protein stability index: 0.678 ± 0.055

VLGWGSKCLVGS
protein stability index: 0.7 ± 0.035

FAKLDRVGACRW
protein stability index: 0.764 ± 0.013

TSPGCPFAFITL
protein stability index: 0.714 ± 0.052

VGGGGVGAGVWG
protein stability index: 0.653 ± 0.086

TPSFTLNAYMLT
protein stability index: 0.693 ± 0.014

PCPAPPPASSSP
protein stability index: 0.728 ± 0.16

FRSTKELLQLGR
protein stability index: 0.664 ± 0.055

PRRLFFFFFLSG
protein stability index: 0.656 ± 0.017

PPSLTPAALPAA
protein stability index: 0.745 ± 0.072

PVPNPPPAPRSS
protein stability index: 0.698 ± 0.062

GRSGWAWFTCRC
protein stability index: 0.67 ± 0.059

QASFPRPSGRAS
protein stability index: 0.7026 ± 0.0054

GHGLLYLIDLCS
protein stability index: 0.638 ± 0.074

WLGRGGACGVRW
protein stability index: 0.696 ± 0.05

KNDKHQTRKSTT
protein stability index: 0.703 ± 0.11

VGPFRISRSFTG
protein stability index: 0.7174 ± 0.004

FSSCPPFRPFPL
protein stability index: 0.787 ± 0.04
